Read-outs that look alike come from different tables or passages of the source.
Key:
[1] = system: influenza A/Anhui/1/2013 (H7N9) virus; parameters: species or system BALB/c mice; settings: mouse, in vivo
[2] = target: hemagglutinin (HA) of influenza B/Washington/02/2019 B-Vic (influenza B virus B/Washington/02/2019); test: cell-based or functional assay
[3] = target: hemagglutinin (HA) of influenza A/Darwin/6/2021 (influenza A virus A/Darwin/6/2021); test: cell-based or functional assay
[4] = target: hemagglutinin (HA) of influenza B/Austria/1359417/2021 (influenza B virus B/Austria/1359417/2021); test: cell-based or functional assay
[5] = target: hemagglutinin (HA) of influenza A/Kansas/14/2017 H3N2 (influenza A virus A/Kansas/14/2017 (H3N2)); test: cell-based or functional assay
[6] = target: hemagglutinin (HA) of influenza A/Brisbane/02/2018 H1N1 (influenza A virus A/Brisbane/02/2018 (H1N1)); test: cell-based or functional assay
[7] = target: hemagglutinin (HA) of influenza A/Singapore/INFIMH-16-0019/2016 H3N2 (influenza A virus A/Singapore/INFIMH-16-0019/2016 (H3N2)); test: cell-based or functional assay
[8] = target: hemagglutinin (HA) of influenza B/Colorado/06/2017 B-Vic (influenza B virus B/Colorado/06/2017); test: cell-based or functional assay
[9] = target: hemagglutinin (HA) of influenza A/Sydney/5/2021 (influenza A virus A/Sydney/5/2021); test: cell-based or functional assay
[10] = target: hemagglutinin (HA) of influenza A/Tasmania/503/2020 (H3N2) (influenza A virus A/Tasmania/503/2020 (H3N2)); test: cell-based or functional assay
[11] = target: hemagglutinin (HA) of influenza B/Phuket/3073/2013 B-Yam (influenza B virus B/Phuket/3073/2013); test: cell-based or functional assay
[12] = target: hemagglutinin (HA) of influenza A/Wisconsin/588/2019 (influenza A virus A/Wisconsin/588/2019); test: cell-based or functional assay
[13] = target: hemagglutinin (HA) of influenza A/Hawaii/70/2019 (influenza A virus A/Hawaii/70/2019); test: cell-based or functional assay
[14] = target: hemagglutinin (HA) of influenza A/Victoria/2570/2019 H1N1 (influenza A virus A/Victoria/2570/2019 (H1N1)); test: cell-based or functional assay
[15] = target: hemagglutinin (HA) of influenza B/Washington/02/2019 B-Vic (influenza B virus B/Washington/02/2019); test: cell-based or functional assay; remark: listed apart in the source
[16] = target: hemagglutinin (HA) of influenza B/Maryland/15/2016 B-Vic (influenza B virus B/Maryland/15/2016); test: cell-based or functional assay
[17] = target: hemagglutinin (HA) of influenza B/California/12/2015 B-Yam (influenza B virus B/California/12/2015); test: cell-based or functional assay
[18] = target: hemagglutinin (HA) of influenza A/Kansas/14/2017 H3N2 (influenza A virus A/Kansas/14/2017 (H3N2)); test: cell-based or functional assay; remark: listed apart in the source
[19] = target: hemagglutinin (HA) of influenza A/Brisbane/02/2018 H1N1 (influenza A virus A/Brisbane/02/2018 (H1N1)); test: cell-based or functional assay; remark: listed apart in the source
[20] = target: hemagglutinin (HA) of influenza A/Singapore/INFIMH-16-0019/2016 H3N2 (influenza A virus A/Singapore/INFIMH-16-0019/2016 (H3N2)); test: cell-based or functional assay; remark: listed apart in the source
[21] = target: hemagglutinin (HA) of influenza B/Colorado/06/2017 B-Vic (influenza B virus B/Colorado/06/2017); test: cell-based or functional assay; remark: listed apart in the source
[22] = target: hemagglutinin (HA) of influenza A/Cambodia/e0826360/2020 H3N2 (influenza A virus A/Cambodia/e0826360/2020 (H3N2)); test: cell-based or functional assay
[23] = target: hemagglutinin (HA) of influenza B/Phuket/3073/2013 B-Yam (influenza B virus B/Phuket/3073/2013); test: cell-based or functional assay; remark: listed apart in the source
[24] = target: hemagglutinin (HA) of influenza A/Victoria/2570/2019 H1N1 (influenza A virus A/Victoria/2570/2019 (H1N1)); test: cell-based or functional assay; remark: listed apart in the source
[25] = target: hemagglutinin (HA) of influenza A/Hong Kong/45/2019 H3N2 (influenza A virus A/Hong Kong/45/2019 (H3N2)); test: cell-based or functional assay
[26] = target: hemagglutinin (HA) of influenza A/Cambodia/e0826360/2020 H3N2 (influenza A virus A/Cambodia/e0826360/2020 (H3N2)); test: cell-based or functional assay; remark: listed apart in the source
[27] = target: hemagglutinin (HA) of influenza A/Hong Kong/45/2019 H3N2 (influenza A virus A/Hong Kong/45/2019 (H3N2)); test: cell-based or functional assay; remark: listed apart in the source
[28] = target: hemagglutinin (HA) of influenza A/Brisbane/02/2018 H1N1 (influenza A virus A/Brisbane/02/2018 (H1N1)); test: cell-based or functional assay; remark: listed apart in the source
[29] = target: hemagglutinin (HA) of influenza A/Hong Kong/4801/2014 H3N2 (influenza A virus A/Hong Kong/4801/2014 (H3N2)); test: cell-based or functional assay
[30] = target: hemagglutinin (HA) of influenza B/Brisbane/60/2008 B-Vic (influenza B virus B/Brisbane/60/2008); test: cell-based or functional assay
[31] = target: hemagglutinin (HA) of influenza A/Switzerland/9715293/2013 H3N2 (influenza A virus A/Switzerland/9715293/2013 (H3N2)); test: cell-based or functional assay

Row | Molecule | HAI titer [2] | HAI titer [3] | HAI titer [4] | HAI titer [5] | HAI titer [6] | HAI titer [7] | HAI titer [8] | HAI titer [9] | HAI titer [10] | HAI titer [11] | HAI titer [12] | HAI titer [13] | HAI titer [15] | HAI titer [16] | HAI titer [17] | HAI titer [18] | HAI titer [20] | HAI titer [21] | HAI titer [22] | HAI titer [23] | further results
1 | CCOC(=O)C1=C[C@@H](OC(CC)CC)[C@H](NC(C)=O)[C@@H](N)C1 [oseltamivir] | – | – | – | – | – | – | – | – | – | – | – | – | – | – | – | – | – | – | – | – | protection from challenge (body weight) [1]: did show protection from challenge
2 | SAB-176 Lot 2 (PD2001010QR) (antibody) | 160 titer | 113 titer | 28 titer | 40 titer | 1280 titer | 320 titer | 320 titer | 320 titer | 160 titer | 160 titer | 640 titer | 640 titer | 128 titer | 256 titer | 128 titer | 64 titer | 512 titer | 256 titer | 256 titer | 256 titer | HAI titer [14]: 256 titer; HAI titer ratio of SAB-176 to hIVIG [14]: 16 to 32 X; HAI titer ratio of SAB-176 to hIVIG [15]: 16 to 32 X; HAI titer of drug product [16]: 3580 titer; HAI titer ratio of SAB-176 to hIVIG [16]: 16 to 32 X; HAI titer ratio of SAB-176 to hIVIG [17]: 16 to 32 X; HAI titer ratio of SAB-176 to hIVIG [18]: 2 to 16 X; HAI titer [19]: 512 titer; HAI titer ratio of SAB-176 to hIVIG [19]: 16 to 32 X; HAI titer of drug product [20]: 7170 titer; HAI titer ratio of SAB-176 to hIVIG [20]: 8 to 32 X; HAI titer ratio of SAB-176 to hIVIG [21]: 16 to 32 X; HAI titer ratio of SAB-176 to hIVIG [22]: 8 to 16 X; HAI titer of drug product [23]: 3580 titer; HAI titer ratio of SAB-176 to hIVIG [23]: 32 X
3 | SAB-176 Lot 3 (antibody) | – | – | – | – | – | – | – | – | – | – | – | – | 64 titer | 128 titer | 128 titer | 512 titer | 512 titer | 256 titer | 256 titer | 128 titer | HAI titer [14]: 256 titer; HAI titer ratio of SAB-176 to hIVIG [14]: 16 to 32 X; HAI titer ratio of SAB-176 to hIVIG [15]: 8 to 16 X; HAI titer ratio of SAB-176 to hIVIG [16]: 8 to 16 X; HAI titer ratio of SAB-176 to hIVIG [17]: 16 to 32 X; HAI titer ratio of SAB-176 to hIVIG [18]: 16 to 128 X; HAI titer [19]: 512 titer; HAI titer ratio of SAB-176 to hIVIG [19]: 16 to 32 X; HAI titer ratio of SAB-176 to hIVIG [20]: 8 to 32 X; HAI titer ratio of SAB-176 to hIVIG [21]: 16 to 32 X; HAI titer ratio of SAB-176 to hIVIG [22]: 8 to 16 X; HAI titer ratio of SAB-176 to hIVIG [23]: 16 X
4 | SAB-176 Lot 4 (PD2102092QR) (antibody) | 160 titer | 160 titer | 40 titer | 320 titer | 1280 titer | 640 titer | 160 titer | 320 titer | 320 titer | 160 titer | 640 titer | 905 titer | 128 titer | 256 titer | 128 titer | 256 titer | 512 titer | 256 titer | 256 titer | 128 titer | HAI titer ratio of SAB-176 to hIVIG [24]: 16 to 32 X; HAI titer [25]: 256 titer; HAI titer ratio of SAB-176 to hIVIG [25]: 16 to 32 X; HAI titer ratio of SAB-176 to hIVIG [26]: 32 X; HAI titer [14]: 256 titer; HAI titer of drug product [15]: 960 titer; HAI titer ratio of SAB-176 to hIVIG [15]: 16 to 32 X; HAI titer ratio of SAB-176 to hIVIG [16]: 16 to 32 X; HAI titer ratio of SAB-176 to hIVIG [17]: 16 to 32 X; HAI titer ratio of SAB-176 to hIVIG [18]: 8 to 64 X; HAI titer [19]: 512 titer; HAI titer ratio of SAB-176 to hIVIG [19]: 16 to 32 X; HAI titer ratio of SAB-176 to hIVIG [20]: 8 to 32 X; HAI titer ratio of SAB-176 to hIVIG [21]: 16 to 32 X; HAI titer of drug product [27]: 1920 titer; HAI titer ratio of SAB-176 to hIVIG [22]: 8 to 16 X; HAI titer of drug product [23]: 3840 titer; HAI titer ratio of SAB-176 to hIVIG [23]: 16 X
5 | SAB-176 Lot 6 (PD2204315QR) (antibody) | 320 titer | 160 titer | 40 titer | 320 titer | 1280 titer | 320 titer | 160 titer | 1280 titer | 640 titer | 160 titer | 1280 titer | 1810 titer | – | – | – | – | – | – | – | – | HAI titer of drug substance [14]: 7680 titer; HAI titer of drug substance [15]: 3840 titer; HAI titer of drug substance [22]: 7680 titer; HAI titer of drug substance [23]: 1920 titer
6 | SAB-176 Lot 1 (PD1901102QR) (antibody) | 160 titer | 113 titer | 28 titer | 40 titer | 1280 titer | 320 titer | 160 titer | 320 titer | 40 titer | 160 titer | 320 titer | 1280 titer | 64 titer | 256 titer | 128 titer | 64 titer | 512 titer | 256 titer | 128 titer | 128 titer | HAI titer [24]: 256 titer; HAI titer ratio of SAB-176 to hIVIG [24]: 16 to 32 X; HAI titer [28]: 512 titer; HAI titer ratio of SAB-176 to hIVIG [28]: 16 to 32 X; HAI titer [25]: 64 titer; HAI titer ratio of SAB-176 to hIVIG [25]: 4 to 8 X; HAI titer ratio of SAB-176 to hIVIG [15]: 8 to 16 X; HAI titer of drug product [16]: 3840 titer; HAI titer ratio of SAB-176 to hIVIG [16]: 16 to 32 X; HAI titer ratio of SAB-176 to hIVIG [17]: 16 to 32 X; HAI titer ratio of SAB-176 to hIVIG [18]: 2 to 16 X; HAI titer of drug product [20]: 7680 titer; HAI titer ratio of SAB-176 to hIVIG [20]: 8 to 32 X; HAI titer ratio of SAB-176 to hIVIG [21]: 16 to 32 X; HAI titer ratio of SAB-176 to hIVIG [22]: 4 to 8 X; HAI titer of drug product [23]: 1920 titer; HAI titer ratio of SAB-176 to hIVIG [23]: 16 X
7 | SAB-176 Lot 5 (PD2203294QR) (antibody) | 320 titer | 320 titer | 40 titer | 320 titer | 1280 titer | 320 titer | 160 titer | 1280 titer | 640 titer | 80 titer | 1280 titer | 1810 titer | – | – | – | – | – | – | – | – | HAI titer of drug substance [14]: 7680 titer; HAI titer of drug substance [15]: 3840 titer; HAI titer of drug substance [22]: 3840 titer; HAI titer of drug substance [23]: 1920 titer
8 | SAB-176 (antibody) | – | – | – | – | – | – | – | – | – | – | – | – | – | 512 titer | – | – | 512 titer | 512 titer | – | 512 titer | HAI titer [29]: 1024 titer; HAI titer [30]: 64 titer; HAI titer [31]: > 2048 titer
9 | negative control IgG (antibody) | – | – | – | – | – | – | – | – | – | – | – | – | < 1 titer | < 1 titer | < 1 titer | < 1 titer | < 1 titer | < 1 titer | < 1 titer | < 1 titer | HAI titer [25]: < 1 titer; HAI titer [14]: < 1 titer; HAI titer [19]: < 1 titer; HAI titer [29]: < 1 titer; HAI titer [30]: < 1 titer; HAI titer [31]: < 1 titer

Source: US20240279315A1 (priority 2023, published 2024)
